B1: Tyrosine-protein phosphatase non-receptor type 23 (Homo sapiens), Q9H3S7 (parent)
chain: MEAVPRMPMIWLDLKEAGDFHFQPAVKKFVLKNYGENPEAYNEELKKLELLRQNAVRVPRDFEGCSVLRKYLGQLHYLQSRVPMGSGQEAAVPVTWTEIFSGKSVAHEDIKYEQACILYNLGALHSMLGAMDKRVSEEGMKVSCTHFQCAAGAFAYLREHFPQAYSVDMSRQILTLNVNLMLGQAQECLLEKSMLDNRKSFLVARISAQVVDYYKEACRALENPDTASLLGRIQKDWKKLVQMKIYYFAAVAHLHMGKQAEEQQKFGERVAYFQSALDKLNEAIKLAKGQPDTVQDALRFTMDVIGGKYNSAKKDNDFIYHEAVPALDTLQPVKGAPLVKPLPVNPTDPAVTGPDIFAKLVPMAAHEASSLYSEEKAKLLREMMAKIEDKNEVLDQFMDSMQLDPETVDNLDAYSHIPPQLMEKCAALSVRPDTVRNLVQSMQVLSGVFTDVEASLKDIRDLLEEDELLEQKFQEAVGQAGAISITSKAELAEVRREWAKYMEVHEKASFTNSELHRAMNLHVGNLRLLSGPLDQVRAALPTPALSPEDKAVLQNLKRILAKVQEMRDQRVSLEQQLRELIQKDDITASLVTTDHSEMKKLFEEQLKKYDQLKVYLEQNLAAQDRVLCALTEANVQYAAVRRVLSDLDQKWNSTLQTLVASYEAYEDLMKKSQEGRDFYADLESKVAALLERTQSTCQAREAARQQLLDRELKKKPPPRPTAPKPLLPRREESEAVEAGDPPEELRSLPPDMVAGPRLPDTFLGSATPLHFPPSPFPSSTGPGPHYLSGPLPPGTYSGPTQLIQPRAPGPHAMPVAPGPALYPAPAYTPELGLVPRSSPQHGVVSSPYVGVGPAPPVAGLPSAPPPQFSGPELAMAVRPATTTVDSIQAPIPSHTAPRPNPTPAPPPPCFPVPPPQPLPTPYTYPAGAKQPIPAQHHFSSGIPAGFPAPRIGPQPQPHPQPHPSQAFGPQPPQQPLPLQHPHLFPPQAPGLLPPQSPYPYAPQPGVLGQPPPPLHTQLYPGPAQDPLPAHSGALPFPSPGPPQPPHPPLAYGPAPSTRPMGPQAAPLTIRGPSSAGQSTPSPHLVPSPAPSPGPGPVPPRPPAAEPPPCLRRGAAAADLLSSSPESQHGGTQSPGGGQPLLQPTKVDAAEGRRPQALRLIERDPYEHPERLRQLQQELEAFRGQLGDVGALDTVWRELQDAQEHDARGRSIAIARCYSLKNRHQDVMPYDSNRVVLRSGKDDYINASCVEGLSPYCPPLVATQAPLPGTAADFWLMVHEQKVSVIVMLVSEAEMEKQKVARYFPTERGQPMVHGALSLALSSVRSTETHVERVLSLQFRDQSLKRSLVHLHFPTWPELGLPDSPSNLLRFIQEVHAHYLHQRPLHTPIIVHCSSGVGRTGAFALLYAAVQEVEAGNGIPELPQLVRRMRQQRKHMLQEKLHLRFCYEAVVRHVEQVLQRHGVPPPCKPLASASISQKNHLPQDSQDLVLGGDVPISSIQATIAKLSIRPPGGLESPVASLPGPAEPPGLPPASLPESTPIPSSSPPPLSSPLPEAPQPKEEPPVPEAPSSGPPSSSLELLASLTPEAFSLDSSLRGKQRMSKHNFLQAHNGQGLRATRPSDDPLSLLDPLWTLNKT
partner: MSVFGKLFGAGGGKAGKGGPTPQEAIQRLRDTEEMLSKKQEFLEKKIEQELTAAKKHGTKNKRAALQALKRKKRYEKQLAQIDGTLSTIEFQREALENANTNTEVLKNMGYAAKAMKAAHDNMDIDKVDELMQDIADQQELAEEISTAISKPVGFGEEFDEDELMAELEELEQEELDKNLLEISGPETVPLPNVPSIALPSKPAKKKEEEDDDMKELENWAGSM

Variants of B1 are the subject of this assay. The following applies: with chm4b_human CHMP4B.
On to L202D;I206D, for which the “effect of a mutation on the interaction” value is listed as “disrupting interaction”.

In the case of L202D, the “effect of a mutation on the interaction” value is reported as “disrupting interaction”.
